Experimental data: patent US20240131162A1 (MacroGenics, published 2024)
Positions count from the first letter of the chain named. Numbers in names are those of the source. One block for each binder: values may come before it.

Assays:
[1] = molecular target: T1, CD16A F158 (human, UniProt P08637 17-208, limits assumed); test: SPR (BIAcore), koff compared with wild-type Fc
T1 construct: construct not described

[2] = molecular target: T2, CD32A^H (UniProt P12318 34-217, limits assumed); test: SPR (BIAcore), koff compared with wild-type Fc
T2 construct: also called FcγRIIA
T2 sequence (looked up): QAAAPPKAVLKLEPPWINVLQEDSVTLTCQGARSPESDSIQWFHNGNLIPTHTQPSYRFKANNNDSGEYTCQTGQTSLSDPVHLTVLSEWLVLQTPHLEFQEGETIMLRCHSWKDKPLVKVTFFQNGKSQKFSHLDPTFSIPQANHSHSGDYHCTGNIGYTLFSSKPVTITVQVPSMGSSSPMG

[3] = molecular target: T3, CD32B (FcγRII-B) (UniProt P31994 43-217, limits assumed); test: SPR (BIAcore), koff compared with wild-type Fc
T3 sequence (looked up): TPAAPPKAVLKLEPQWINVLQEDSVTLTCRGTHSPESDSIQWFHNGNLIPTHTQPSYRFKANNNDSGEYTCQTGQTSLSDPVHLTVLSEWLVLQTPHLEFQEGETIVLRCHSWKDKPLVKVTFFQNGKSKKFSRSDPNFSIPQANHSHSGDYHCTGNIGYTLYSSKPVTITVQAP

[4] = molecular target: T4, CD16A V158 (human, UniProt P08637 17-208, limits assumed); test: SPR (BIAcore), koff compared with wild-type Fc
T4 construct: construct not described
T4 sequence (P08637 17-208 F176V limits assumed): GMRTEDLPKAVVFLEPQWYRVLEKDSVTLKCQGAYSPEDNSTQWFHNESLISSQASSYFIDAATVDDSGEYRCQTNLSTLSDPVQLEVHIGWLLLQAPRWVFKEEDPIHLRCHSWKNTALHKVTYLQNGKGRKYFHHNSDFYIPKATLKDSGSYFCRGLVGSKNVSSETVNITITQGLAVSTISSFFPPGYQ

[5] = molecular target: T1, CD16A F158; test: method not stated at Table 3
[6] = molecular target: T3, CD32B (FcγRII-B); test: method not stated at Table 3
[7] = molecular target: T4, CD16A V158; test: method not stated at Table 3
[8] = molecular target: T5, HER-2 (human, UniProt P04626 23-652, limits assumed); test: SPR (BIAcore), HER-2 immobilised, antibody as analyte
T5 construct: also called HER2/neu; erbB-2
Experimental: The kinetic parameters of the binding of eluted and purified antibodies were analyzed using a BIACORE® assay (BIAcore instrument 1000, BIAcore Inc., Piscataway, N.J.) and associated software. HER-2 was immobilized on one of the four flow cells (flow cell 2) of a sensor chip surface through amine coupling chemistry (by modification of carboxymethyl groups with mixture of NHS/EDC) such that about 1000 response units (RU) of receptor was immobilized on the surface. Following this, the unreacted active esters were “capped off” with an injection of 1 M Et-NH2.

[9] = molecular target: human CD16A (FcγRIII-A) (human, UniProt P08637 17-208, limits assumed); test: method not stated
human CD16A (FcγRIII-A), sequence (P08637 17-208 limits assumed): as the sequence (P08637 17-208 F176V limits assumed) above, with V160F counted along it

T1 sequence (P08637 17-208 limits assumed): as the sequence (P08637 17-208 F176V limits assumed) above, with V160F counted along it

WT koff/mutant koff [1]: 4.6 ratio
WT koff/mutant koff [2]: 1 ratio
WT koff/mutant koff [3]: 0.6 ratio
WT koff/mutant koff [4]: 7.4 ratio
B1: Fc mutant 12: F243L R292P Y300L (other, UniProt P01857-1 104-330, looked up)
chain: DKTHTCPPCPAPELLGGPSVFLLPPKPKDTLMISRTPEVTCVVVDVSHEDPEVKFNWYVDGVEVHNAKTKPPEEQYNSTLRVVSVLTVLHQDWLNGKEYKCKVSNKALPAPIEKTISKAKGQPREPQVYTLPPSRDELTKNQVSLTCLVKGFYPSDIAVEWESNGQPENNYKTTPPVLDSDGSFFLYSKLTVDKSRWQQGNVFSCSVMHEALHNHYTQKSLSLSPGK
notes: domain: Fc

binding relative to wild-type Fc [5]: 2.28 fold
binding relative to wild-type Fc [6]: 0.79 fold
binding relative to wild-type Fc [7]: 1.81 fold
B2: Fc variant D270E K392T P396L (other, UniProt P01857-1 104-330, looked up)
chain: B1 chain with L23F, D50E, P72R, L80Y, K172T, P176L
notes: domain: Fc

binding relative to wild-type Fc [5]: 1.9 fold
binding relative to wild-type Fc [6]: 0.92 fold
binding relative to wild-type Fc [7]: 1.85 fold
WT koff/mutant koff [1]: 1.9 ratio
WT koff/mutant koff [2]: 1.5 ratio
WT koff/mutant koff [3]: 0.9 ratio
WT koff/mutant koff [4]: 1.9 ratio
B3: Fc mutant 15: R292P V305I P396L (other, UniProt P01857-1 104-330, looked up)
chain: B1 chain with L23F, L80Y, V85I, P176L
notes: domain: Fc

binding relative to wild-type Fc [5]: 2.44 fold
binding relative to wild-type Fc [6]: 0.44 fold
binding relative to wild-type Fc [7]: 3.16 fold
B4: Fc variant F243L D270E K392T P396L (other, UniProt P01857-1 104-330, looked up)
chain: B1 chain with D50E, P72R, L80Y, K172T, P176L
notes: domain: Fc

binding relative to wild-type Fc [6]: 0.65 fold
B5: Fc variant R255L D270E R292G P396L (other, UniProt P01857-1 104-330, looked up)
chain: B1 chain with L23F, R35L, D50E, P72G, L80Y, P176L
notes: domain: Fc

binding relative to wild-type Fc [5]: 1.74 fold
binding relative to wild-type Fc [6]: 0.87 fold
binding relative to wild-type Fc [7]: 1.52 fold
B6: Fc variant R255L D270E Y300L P396L (other, UniProt P01857-1 104-330, looked up)
chain: B1 chain with L23F, R35L, D50E, P72R, P176L
notes: domain: Fc

WT koff/mutant koff [2]: 1.4 ratio
WT koff/mutant koff [3]: 0.4 ratio
WT koff/mutant koff [4]: 6.3 ratio
B7: Fc mutant 14: F243L R292P P396L (other, UniProt P01857-1 104-330, looked up)
chain: B1 chain with L80Y, P176L
notes: domain: Fc

binding relative to wild-type Fc [5]: 2.49 fold
binding relative to wild-type Fc [6]: 0.78 fold
binding relative to wild-type Fc [7]: 2.18 fold
B8: Fc variant D270E G316D R416G (other, UniProt P01857-1 104-330, looked up)
chain: B1 chain with L23F, D50E, P72R, L80Y, G96D, R196G
notes: domain: Fc

binding relative to wild-type Fc [5]: 2.46 fold
binding relative to wild-type Fc [6]: 0.58 fold
binding relative to wild-type Fc [7]: 1.89 fold
B9: Fc variant P247L D270E N421K (other, UniProt P01857-1 104-330, looked up)
chain: B1 chain with L23F, P27L, D50E, P72R, L80Y, N201K
notes: domain: Fc

binding relative to wild-type Fc [5]: 1.43 fold
binding relative to wild-type Fc [7]: 2.56 fold
WT koff/mutant koff [1]: 1.4 ratio
WT koff/mutant koff [2]: 0.2 ratio
WT koff/mutant koff [3]: 0.1 ratio
WT koff/mutant koff [4]: 2.6 ratio
B10: Fc mutant 13: F243L R292P V305I (other, UniProt P01857-1 104-330, looked up)
chain: B1 chain with L80Y, V85I
notes: domain: Fc

binding relative to wild-type Fc [5]: 2.53 fold
binding relative to wild-type Fc [6]: 0.4 fold
binding relative to wild-type Fc [7]: 5.37 fold
WT koff/mutant koff [1]: 2.3 ratio
WT koff/mutant koff [2]: 0.8 ratio
WT koff/mutant koff [3]: 0.4 ratio
WT koff/mutant koff [4]: 4 ratio
B11: Fc mutant 17: F243L R292P V305I P396L (other, UniProt P01857-1 104-330, looked up)
chain: B1 chain with L80Y, V85I, P176L
notes: domain: Fc

binding relative to wild-type Fc [5]: 1.15 fold
binding relative to wild-type Fc [6]: 0.26 fold
binding relative to wild-type Fc [7]: 1.46 fold
B12: Fc variant F243L D270E P396L Q419H (other, UniProt P01857-1 104-330, looked up)
chain: B1 chain with D50E, P72R, L80Y, P176L, Q199H
notes: domain: Fc

binding relative to wild-type Fc [5]: 8.25 fold
binding relative to wild-type Fc [6]: 1.38 fold
binding relative to wild-type Fc [7]: 10.1 fold
WT koff/mutant koff [1]: 8.3 ratio
WT koff/mutant koff [2]: 3.2 ratio
WT koff/mutant koff [3]: 1.4 ratio
WT koff/mutant koff [4]: 10.1 ratio
B13: Fc mutant 18: F243L R292P Y300L V305I P396L (other, UniProt P01857-1 104-330, looked up)
chain: B1 chain with V85I, P176L
notes: domain: Fc; Same substitutions as the Fc of ch4D5-FcMT1

binding relative to wild-type Fc [5]: 1.34 fold
binding relative to wild-type Fc [6]: 0.2 fold
binding relative to wild-type Fc [7]: 1.5 fold
B14: Fc variant F243L D270E G316D R416G (other, UniProt P01857-1 104-330, looked up)
chain: B1 chain with D50E, P72R, L80Y, G96D, R196G
notes: domain: Fc

binding relative to wild-type Fc [5]: 3.12 fold
binding relative to wild-type Fc [6]: 1.05 fold
B15: Fc variant F243I R292P Y300L V305I P396L (other, UniProt P01857-1 104-330, looked up)
chain: B1 chain with L23I, V85I, P176L
notes: domain: Fc; 'F243I' as printed

binding relative to wild-type Fc [5]: 0.94 fold
binding relative to wild-type Fc [6]: 1.07 fold
binding relative to wild-type Fc [7]: 1.22 fold
B16: Fc variant D270E P396L G316D R416G (other, UniProt P01857-1 104-330, looked up)
chain: B1 chain with L23F, D50E, P72R, L80Y, G96D, P176L, R196G
notes: domain: Fc; also called D270E G316D P396L R416G

binding relative to wild-type Fc [5]: 3.45 fold
binding relative to wild-type Fc [6]: 0.32 fold
binding relative to wild-type Fc [7]: 2.3 fold
B17: Fc variant F243L P247L D270E N421K (other, UniProt P01857-1 104-330, looked up)
chain: B1 chain with P27L, D50E, P72R, L80Y, N201K
notes: domain: Fc

binding relative to wild-type Fc [5]: 1.71 fold
binding relative to wild-type Fc [6]: 0.17 fold
binding relative to wild-type Fc [7]: 1.89 fold
B18: Fc variant F243L P247L N421K (other, UniProt P01857-1 104-330, looked up)
chain: B1 chain with P27L, P72R, L80Y, N201K
notes: domain: Fc

binding relative to wild-type Fc [6]: 0.68 fold
binding relative to wild-type Fc [7]: 1.64 fold
B19: Fc variant D270E P396L Q419H (other, UniProt P01857-1 104-330, looked up)
chain: B1 chain with L23F, D50E, P72R, L80Y, P176L, Q199H
notes: domain: Fc

binding relative to wild-type Fc [5]: 1.65 fold
binding relative to wild-type Fc [6]: 0.87 fold
binding relative to wild-type Fc [7]: 1.34 fold
B20: Fc variant R255L D270E P396L (other, UniProt P01857-1 104-330, looked up)
chain: B1 chain with L23F, R35L, D50E, P72R, L80Y, P176L
notes: domain: Fc

binding relative to wild-type Fc [5]: 1.64 fold
binding relative to wild-type Fc [6]: 0.38 fold
binding relative to wild-type Fc [7]: 1.75 fold
B21: Fc variant F243L R255L D270E P396L (other, UniProt P01857-1 104-330, looked up)
chain: B1 chain with R35L, D50E, P72R, L80Y, P176L
notes: domain: Fc

binding relative to wild-type Fc [5]: 5.62 fold
binding relative to wild-type Fc [6]: 1.07 fold
binding relative to wild-type Fc [7]: 10.1 fold
WT koff/mutant koff [1]: 5.6 ratio
WT koff/mutant koff [2]: 1.7 ratio
WT koff/mutant koff [3]: 1.1 ratio
WT koff/mutant koff [4]: 10.1 ratio
B22: Fc mutant 16: F243L R292P Y300L P396L (other, UniProt P01857-1 104-330, looked up)
chain: B1 chain with P176L
notes: domain: Fc

koff [8]: ~3.2e-07 s⁻¹
kon [8]: 170000 M⁻¹ s⁻¹
B23: ch4D5-wild-type Fc (antibody, human IgG1, kappa)
heavy: not shown
light: DIVMTQSHKFMSTSVGDRVSITCKASQDVNTAVAWYQQKPGHSPKLLIYSASFRYTGVPDRFTGSRSGTDFTFTISSVQAEDLAVYYCQQHYTTPPTFGGGTKVEIKRTVAAPSVFIFPPSDEQLKSGTASVVCLLNNFYPREAKVQWKVDNALQSGNSQESVTEQDSKDSTYSLSSTLTLSKADYEKHKVYACEVTHQGLSSPVTKSFNRGEC
notes: Chimeric 4D5; also called ch4D5-FcWT; WT

fold increase in binding [9]: 10 fold
B24: ch4D5-FcMT1 (antibody, human IgG1, kappa)
heavy: QVQLQQSGPELVKPGASLKLSCTASGFNIKDTYIHWVKQRPEQGLEWIGRIYPTNGYTRYDPKFQDKATITADTSSNTAYLQVSRLTSEDTAVYYCSRWGGDGFYAMDYWGQGASVTVSSASTKGPSVFPLAPSSKSTSGGTAALGCLVKDYFPEPVTVSWNSGALTSGVHTFPAVLQSSGLYSLSSVVTVPSSSLGTQTYICNVNHKPSNTKVDKRVEPKSCDKTHTCPPCPAPELLGGPSVFLLPPKPKDTLMISRTPEVTCVVVDVSHEDPEVKFNWYVDGVEVHNAKTKPPEEQYNSTLRVVSILTVLHQDWLNGKEYKCKVSNKALPAPIEKTISKAKGQPREPQVYTLPPSRDELTKNQVSLTCLVKGFYPSDIAVEWESNGQPENNYKTTPLVLDSDGSFFLYSKLTVDKSRWQQGNVFSCSVMHEALHNHYTQKSLSLSPGK
light: B23 light
